Results reported in patent publication US20160083476A1 (CENTRE NATIONAL DE LA RECHERCHE SCIENTIFIQUE CNRS, published 2016).

Legend:
[1] = molecular target: T1, NCA expressed at the surface of MC38/NCA+ cells and granulocytes (UniProt P40199 35-320, limits assumed); experiment: FACS on MC38/NCA+ cells and granulocytes
T1 construct: whole, on cells
T1 sequence (looked up): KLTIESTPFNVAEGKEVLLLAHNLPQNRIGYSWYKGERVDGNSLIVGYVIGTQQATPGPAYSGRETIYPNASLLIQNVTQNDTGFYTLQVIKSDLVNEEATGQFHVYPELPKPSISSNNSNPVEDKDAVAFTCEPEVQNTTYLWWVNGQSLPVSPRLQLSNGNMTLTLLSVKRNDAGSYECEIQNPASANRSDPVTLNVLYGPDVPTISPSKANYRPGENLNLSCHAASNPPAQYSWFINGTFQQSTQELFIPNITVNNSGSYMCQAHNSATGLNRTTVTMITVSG

[2] = molecular target: T2, extracellular region of the human recombinant carcinoembryonary antigen (CEA) (human, UniProt P06731 35-676, limits assumed); experiment: SPR, BIACORE 3000; VHH captured on immobilised anti-c-myc mAb 9E10, CEA injected
T2 construct: extracellular domain; The Biacore paragraph says only 'CEA'; also called rhCEA
T2 sequence (looked up): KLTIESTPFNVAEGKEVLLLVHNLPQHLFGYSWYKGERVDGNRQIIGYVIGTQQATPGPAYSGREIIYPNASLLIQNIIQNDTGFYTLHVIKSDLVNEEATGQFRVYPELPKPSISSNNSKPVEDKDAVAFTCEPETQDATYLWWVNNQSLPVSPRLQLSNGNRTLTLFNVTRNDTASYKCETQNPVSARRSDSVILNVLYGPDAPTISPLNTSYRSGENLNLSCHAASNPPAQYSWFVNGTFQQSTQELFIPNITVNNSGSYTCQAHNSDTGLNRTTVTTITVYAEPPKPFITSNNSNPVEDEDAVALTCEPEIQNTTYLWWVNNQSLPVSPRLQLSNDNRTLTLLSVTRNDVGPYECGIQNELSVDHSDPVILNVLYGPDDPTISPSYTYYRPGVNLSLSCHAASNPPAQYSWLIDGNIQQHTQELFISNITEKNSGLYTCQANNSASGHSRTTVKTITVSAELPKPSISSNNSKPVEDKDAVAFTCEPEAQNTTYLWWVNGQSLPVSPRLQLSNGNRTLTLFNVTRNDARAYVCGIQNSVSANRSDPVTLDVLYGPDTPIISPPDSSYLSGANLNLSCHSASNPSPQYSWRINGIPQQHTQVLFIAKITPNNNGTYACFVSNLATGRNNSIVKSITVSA
Experimental: The VHH (in buffer: 10 mM HEPES; 150 mM NaCl; 3 mM EDTA; 0.005% surfactant P20) is then injected and then a range of CEA or CD16 is injected on the VHH immobilised on the 9E10.

[3] = molecular target: extracellular region of human recombinant (CD16B) receptor FcγRIIIB (human) (UniProt O75015); experiment: SPR, BIACORE 3000; VHH captured on immobilised anti-c-myc mAb 9E10, CD16 injected
Sequence of extracellular region of human recombinant (CD16B) receptor FcγRIIIB (human) (O75015 17-200 limits assumed): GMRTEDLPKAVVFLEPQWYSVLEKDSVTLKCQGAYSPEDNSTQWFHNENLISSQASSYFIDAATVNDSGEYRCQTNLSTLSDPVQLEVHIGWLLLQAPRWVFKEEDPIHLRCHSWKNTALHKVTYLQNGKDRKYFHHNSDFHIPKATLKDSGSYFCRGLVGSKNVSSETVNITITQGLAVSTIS

[4] = molecular target: T1, NCA expressed at the surface of …; experiment: FACS on cells, detection by 9E10 anti-c-myc then anti-mouse IgG-FITC
Experimental: At each step, the samples are incubated for 45 min, 4° C., in the dark. Between each reaction, a washing is carried out with 2 ml of PBS/1% BSA. At the last step, the cells are taken up with 0.5 ml of PBS.

B1: Anti-CEA 43 VHH (VHH)
VHH: EVQLVESGGGLVQAGGSLTLSCTSSTLTFTPYRMGWYRQTPGKQRDLVADISPGDGSTKNYAGFAQGRFTISRDNIKNTVYLQMNDLKPEDTAVYYCNTYVAFVGRARTWGQGTQVTVTS
notes: Purified from E. coli periplasm; c-myc tag recognised by mAb 9E10; also called anti-CEA VHH clone 43
binding result [1]: no binding (tested: 1 to 5 µg/ml) | Ka [2]: 9.72e+07 M⁻¹ | Kd [2]: 0.0103 µM | koff [2]: 0.00183 s⁻¹ | kon [2]: 178000 M⁻¹ s⁻¹

B2: Anti-CD16 c13 VHH (VHH)
VHH: EVQLVESGGGLVQPGGSLRLSCSFPGSIFSLTMGWYRQAPGKERELVTSATPGGDTNYADFVKGRFTISRDNARSIIYLQMNSLKPEDTAVYYCYARTRNWGTVWGQGTQVTVSS
Ka [3]: 9.4e+06 M⁻¹ | Kd [3]: 0.101 µM | koff [3]: 0.00567 s⁻¹ | kon [3]: 53000 M⁻¹ s⁻¹

B3: Anti-CEA 3 VHH (VHH)
VHH: EVQLVESGGGLVQAGGSLRLSCTSSTVTFTPYQMGWYRQAPGKQRALVADISTGGSRTNYADFAKGRFTISRDDVKNTVYLQMNNLKPEDTAVYYCNTYYAMIGHARNWGQGTQVTVSS
notes: Purified from E. coli periplasm; c-myc tag recognised by mAb 9E10; also called anti-CEA VHH clone 3
Ka [2]: 7.38e+07 M⁻¹ | Kd [2]: 0.0136 µM | koff [2]: 0.00168 s⁻¹ | kon [2]: 124000 M⁻¹ s⁻¹

B4: Anti-CD16 c72 VHH (VHH)
VHH: EVQLVESGGGLVQPGGSLTLSCVAAGSIFTFAMSWYRQAPRKERELVARIGTDDETMYKDSVKGRFTISRDNVKRTAGLQMNNLKPEDTAVYYCNARTDYRDWTVREYWGQGTQVTVSS
Ka [3]: 1.06e+07 M⁻¹ | Kd [3]: 0.0946 µM | koff [3]: 0.0037 s⁻¹ | kon [3]: 39000 M⁻¹ s⁻¹

B5: Anti-CEA 25 VHH (VHH)
VHH: EVQLVESGGGLVQAGDSLTLTCTSPTLTFTPYRMGWYRQAPGKQRDLVADISGGDGRTTNYADFAKGRFTISRDNVKNAVYLQMNNLKPEDTAIYYCNTYVAIVGHARSWGQGTQVTVSS
notes: Purified from E. coli periplasm; c-myc tag recognised by mAb 9E10; also called anti-CEA VHH clone 25
binding result [1]: no binding (tested: 1 to 5 µg/ml) | Ka [2]: 3.15e+07 M⁻¹ | Kd [2]: 0.0317 µM | koff [2]: 0.0036 s⁻¹ | kon [2]: 113000 M⁻¹ s⁻¹

B6: Anti-CEA 17 VHH (VHH)
VHH: EVQLVESGGGFVQAGESLTLSCTSSTLTFTPYRMAWYRQAPGKQRDLVADISSGDGRTTNYADFAKGRFTISRDNIKNTVFLRMTNLKPEDTAVYYCNTFVSFVGIARSWGQGTQVTVSS
notes: also called VHH CEA 17; anti-CEA VHH clone 17
binding result [4]: no binding

B7: Anti-CD16 c21 VHH (VHH)
VHH: EVQLVESGGELVQAGGSLRLSCAASGLTFSSYNMGWFRRAPGKEREFVASITWSGRDTFYADSVKGRFTISRDNAKNTVYLQMSSLKPEDTAVYYCAANPWPVAAPRSGTYWGQGTQVTVSS
Ka [3]: 1.03e+08 M⁻¹ | Kd [3]: 0.0097 µM | koff [3]: 0.00279 s⁻¹ | kon [3]: 286000 M⁻¹ s⁻¹
